Columns and labels:
Conditions in all cases: other: oocytes with mouse asc-1 and 4F2hc cRNA; Na+-free uptake solution; pH 7.4
[1] = substrate: N[C@@H](CO)C(=O)O; assay: Michaelis-Menten kinetic test of substrate incorporation by Xenopus oocytes co-expressing asc-1 and 4F2hc; type: cell-based
Protocol: (§1) Into oocytes were injected 12 ng of asc-1 gene cRNA of mouse, 13 ng of 4F2hc gene cRNA of mouse or 12 ng asc-1 gene cRNA of mouse/13 ng of 4F2hc gene cRNA of mouse to express followed by incubating for 3 days. […] Thus, the oocytes were allowed to stand for 30 minutes in a Na^+-free uptake solution [100 mM choline chloride, 2 mM potassium chloride, 1.8 mM calcium chloride, 1 mM magnesium chloride, 5 mM HEPES; pH 7.4] containing ^14C-alanine (100 μM) as a substrate and the rate of the substrate incorporated into the cells was measured by way of counting the radioactivity incorporated thereinto.
(§2) A Michaelis-Menten kinetic test was carried out for a sodium-independent small neutral amino acid transporter asc-1 which transports L- and D-amino acids. By checking the changes in the rate of incorporation of alanine due to the difference in concentration of the alanine substrate, the Michaelis-Menten kinetic test of asc-1 was carried out.
(§3) An experiment for the incorporation of alanine was carried out according to the method mentioned in the above Example 2(1) using the oocytes into which both asc-1 gene cRNA of mouse and 4F2hc gene cRNA of mouse were injected.
(§4) With regard to amino acids other than alanine which were used as substrates, a Michaelis-Menten kinetic was carried out as well in the same manner whereupon Km values and Vmax values were calculated.

[2] = substrate: CC(C)[C@H](N)C(=O)O; assay: as above; type: cell-based
Protocol: as §1, §2, §3, §4

[3] = substrate: CC[C@H](C)[C@H](N)C(=O)O; assay: as above; type: cell-based
Protocol: as §1, §2, §3, §4

[4] = substrate: N[C@@H](CS)C(=O)O; assay: as above; type: cell-based
Protocol: as §1, §2, §3, §4

[5] = substrate: CC(C)C[C@H](N)C(=O)O; assay: as above; type: cell-based
Protocol: as §1, §2, §3, §4

[6] = substrate: CC(C)(N)C(=O)O; assay: as above; type: cell-based
Protocol: as §1, §2, §3, §4

[7] = substrate: N[C@H](CO)C(=O)O; assay: as above; type: cell-based
Protocol: as §1, §2, §3, §4

[8] = substrate: N[C@@H](Cc1c[nH]cn1)C(=O)O; assay: as above; type: cell-based
Protocol: as §1, §2, §3, §4

[9] = substrate: N[C@@H](Cc1ccccc1)C(=O)O; assay: as above; type: cell-based
Protocol: as §1, §2, §3, §4

[10] = substrate: C[C@H](N)C(=O)O; assay: cells, lysate or membranes
[11] = substrate: C[C@@H](N)C(=O)O; assay: cells, lysate or membranes
[12] = substrate: NCCC(=O)O; assay: cells, lysate or membranes
[13] = substrate: NCC(=O)O; assay: cells, lysate or membranes
[14] = substrate: CSCC[C@H](N)C(=O)O; assay: cells, lysate or membranes
[15] = substrate: C[C@@H](O)[C@H](N)C(=O)O; assay: cells, lysate or membranes

B1: asc-1 of mouse (co-expressed with 4F2hc of mouse) (Mus musculus) (protein)
chain: MRRDSDMASHIQQPGGHGNPGPAPSPSPGPGPGPGASERVALKKEIGLVSACTIIIGNIIGSGIFISPKGVLEHSGSVGLALFVWVLGGGVTALGSLCYAELGVAIPKSGGDYAYVTEIFGGLAGFLLLWSAVLIMYPTSLAVISMTFSNYVLQPVFPNCIPPATASRVLSMACLMLLTWVNSSSVRWATRIQVIFTGGKLLALSLIITVGFVQIFQGHFEELRPTNAFAFWMTPSVGHLALAFLQGSFAFSGWNFLNYVTEELVDPRKNLPRAIFISIPLVTFVYTFTNVAYFTAMSPQELLSSNAVAVTFGEKLLGYFSWVMPVSVALSTFGGINGYLFTSSRLCFSGAREGHLPSFLAMIHVRRCTPIPALLVCCGATAVIMLVGDTYTLINYVSFINYLCYGVTILGLLVLRWRRPALHRPIKVNLLVPVVYLVFWAFLLVFSFISEPMVCGVGIIIILTGVPIFFLGVFWRSKPKCVHRFTESMTRWGQELCFVVYPQGSLEEEENGPMGQPSPLPITDKPLKTQ
notes: expressed in transfected cells; host or cells: Xenopus oocytes injected with cRNA
Km [1]: 11.3 µM
Km [2]: 112 µM
Km [3]: 160 µM
Km [4]: 23.7 µM
Km [5]: 245 µM
Km [6]: 22.7 µM
Km [7]: 52.0 µM
Km [8]: 368 µM
Km [9]: 464 µM
Km [10]: 23.0 ± 5.1 µM
Km [11]: 100 µM
Km [12]: 281 µM
Km [13]: 7.8 µM
Km [14]: 139 µM
Km [15]: 19.3 µM

From patent US20070122422A1, “Sodium-independent small neutral amino acid transporter transporting L- and D- amino acids” (Japan Science and Technology Corporation, priority 2000, published 2007)
